From publication PMC11262183, “Arid5a uses disordered extensions of its core ARID domain for distinct DNA- and RNA-recognition and gene regulation”

T1: Arid5a ARID (Homo sapiens) (UniProt Q03989)
T1 sequence: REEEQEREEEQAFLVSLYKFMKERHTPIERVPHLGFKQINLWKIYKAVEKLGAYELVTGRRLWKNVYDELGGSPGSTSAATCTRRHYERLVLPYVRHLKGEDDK

T2: Arid5a ARID37-183 (human, UniProt Q03989 37-183)
T2 sequence: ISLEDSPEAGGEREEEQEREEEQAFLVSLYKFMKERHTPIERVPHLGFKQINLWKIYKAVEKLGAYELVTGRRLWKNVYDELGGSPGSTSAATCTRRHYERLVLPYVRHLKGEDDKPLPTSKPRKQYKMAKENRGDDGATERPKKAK

T3: ARID49-152 K85A/Q86A (human, UniProt Q03989 49-152, K85A;Q86A)
T3 sequence: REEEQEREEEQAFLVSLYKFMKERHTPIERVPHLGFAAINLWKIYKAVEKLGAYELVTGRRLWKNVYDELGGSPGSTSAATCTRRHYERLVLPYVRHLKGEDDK

T4: Arid5a ARID49-152 (human, UniProt Q03989 49-152)
T4 sequence: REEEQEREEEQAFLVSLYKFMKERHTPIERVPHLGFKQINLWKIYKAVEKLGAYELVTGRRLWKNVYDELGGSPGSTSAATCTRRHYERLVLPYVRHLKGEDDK


Legend:
[1] = target: T1, Arid5a ARID (Homo sapiens); assay: pulldown; details: 1 and 5 uM protein; 25 mM Tris pH 7.5, 150 mM KCl, 3 mM MgCl2
Arid5a ARID37-183 [2] = target: T2, Arid5a ARID37-183; assay: EMSA; 10 mM MgCl2, yeast tRNA; range over WT, var1, var2, var4; 20 mM Bis-Tris pH 6.5, 150 mM NaCl, 2 mM TCEP, 0.02% NaN3; NMR at 298 K; EMSA plus 10 mM MgCl2 and 0.6 ug yeast tRNA per 20 ul, 22-24 C; details: protein: recombinant; tags: cloned in pET-Trx1a (TEV site); label: 5'-fluorescein on strand 1; blunt
ARID49-152 K85A/Q86A = target: T3, ARID49-152 K85A/Q86A; assay: NMR; 2-fold DNA; 20 mM Bis-Tris pH 6.5, 150 mM NaCl, 2 mM TCEP, 0.02% NaN3; NMR at 298 K; EMSA plus 10 mM MgCl2 and 0.6 ug yeast tRNA per 20 ul, 22-24 C; details: protein: recombinant; tags: cloned in pET-Trx1a (TEV site); blunt
Arid5a ARID49-152 = target: T4, Arid5a ARID49-152; assay: NMR; 2-fold RNA; 20 mM Bis-Tris pH 6.5, 150 mM NaCl, 2 mM TCEP, 0.02% NaN3; NMR at 298 K; EMSA plus 10 mM MgCl2 and 0.6 ug yeast tRNA per 20 ul, 22-24 C; details: protein: recombinant; tags: cloned in pET-Trx1a (TEV site)
Arid5a ARID37-183 [3] = target: T2, Arid5a ARID37-183; assay: NMR; 3.5-fold RNA; stronger than core; 20 mM Bis-Tris pH 6.5, 150 mM NaCl, 2 mM TCEP, 0.02% NaN3; NMR at 298 K; EMSA plus 10 mM MgCl2 and 0.6 ug yeast tRNA per 20 ul, 22-24 C; details: protein: recombinant; tags: cloned in pET-Trx1a (TEV site); hairpin
Arid5a ARID37-183 [4] = target: T2, Arid5a ARID37-183; assay: NMR; 0.1-fold RNA; 20 mM Bis-Tris pH 6.5, 150 mM NaCl, 2 mM TCEP, 0.02% NaN3; NMR at 298 K; EMSA plus 10 mM MgCl2 and 0.6 ug yeast tRNA per 20 ul, 22-24 C; details: protein: recombinant; tags: cloned in pET-Trx1a (TEV site)
Arid1a extended ARID [5] = target: T5, Arid1a extended ARID (human, UniProt O14497 999-1132); assay: EMSA; similar affinity to AT; 20 mM Bis-Tris pH 6.5, 150 mM NaCl, 2 mM TCEP, 0.02% NaN3; NMR at 298 K; EMSA plus 10 mM MgCl2 and 0.6 ug yeast tRNA per 20 ul, 22-24 C; details: protein: recombinant; tags: cloned in pET-Trx1a (TEV site); label: 5'-fluorescein on strand 1; blunt
T5 sequence (O14497 999-1132): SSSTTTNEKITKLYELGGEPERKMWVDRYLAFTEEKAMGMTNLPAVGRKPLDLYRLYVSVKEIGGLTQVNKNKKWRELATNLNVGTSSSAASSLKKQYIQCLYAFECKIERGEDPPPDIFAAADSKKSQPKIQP

Arid1a extended ARID [6] = target: T5, Arid1a extended ARID; assay: EMSA; 20 mM Bis-Tris pH 6.5, 150 mM NaCl, 2 mM TCEP, 0.02% NaN3; NMR at 298 K; EMSA plus 10 mM MgCl2 and 0.6 ug yeast tRNA per 20 ul, 22-24 C; details: protein: recombinant; tags: cloned in pET-Trx1a (TEV site); label: 5'-fluorescein on strand 1; blunt

| Molecule | binding signal (RBNS z-score of enrichment R) [1] | other results |
| --- | --- | --- |
| AAAAAAA [7-mer AAAAAAA] | 3.68 | – |
| AAAAAUA [7-mer AAAAATA] | 3.52 | – |
| AAAUAUA [7-mer AAATATA] | 4.03 | – |
| AACAGGC [7-mer AACAGGC] | 4.87 | – |
| AAUAUAA [7-mer AATATAA] | 3.73 | – |
| ACAGGCA [7-mer ACAGGCA] | 11.6 | – |
| AGGCAGA [7-mer AGGCAGA] | 6.46 | – |
| AGGCAGC [7-mer AGGCAGC] | 7.71 | – |
| AGGCAGG [7-mer AGGCAGG] | 8.18 | – |
| AGGCAGU [7-mer AGGCAGT] | 6.38 | – |
| CAGGCAA [7-mer CAGGCAA] | 6.65 | – |
| CAGGCAG [7-mer CAGGCAG] | 13 | – |
| CAGGCAU [7-mer CAGGCAT] | 4.61 | – |
| GCAGGCA [7-mer GCAGGCA] | 5.88 | – |
| UACAGGC [7-mer TACAGGC] | 5.55 | – |
| 13merAT_var2 (dsDNA) DNA 1: GCACGGTATAACG DNA 2: CGTTATACCGTGC | – | Kd (Arid5a ARID37-183 [2]): ~1.36 µM |
| 13merAT (dsDNA) DNA 1: GCACAATATAACG DNA 2: CGTTATATTGTGC | – | binding result (ARID49-152 K85A/Q86A): binds |
| CCUGCCUGU (ssRNA) [RBNS-9mer-rev] | – | binding result (Arid5a ARID49-152): binds |
| CACACCGUUCUAGGUGCUG (structured_RNA) [19mer_ADE (Ox40 ADE)] | – | binding result (Arid5a ARID37-183 [3]): binds |
| ACAGGCAGG (ssRNA) [RBNS-9mer-fw] | – | binding result (Arid5a ARID49-152): binds |
| 13merAT_var1 (dsDNA) DNA 1: GCGCAATATAGCG DNA 2: CGCTATATTGCGC | – | Kd (Arid5a ARID37-183 [2]): ~1.36 µM |
| Il-6 3'UTR 129 nt (structured_RNA) RNA: GGCACAGAACUUAUGUUGUUCUCUAUGGAGAACUAAAAGUAUGAGCGUUAGGACACUAUUUUAAUUAUUUUUAAUUUAUUAAUAUUUAAAUAUGUGAAGCUGAGUUAAUUUAUGUAAGUCAUAUUUAUA | – | binding result (Arid5a ARID37-183 [4]): binds |
| 13merAT_var4 (dsDNA) DNA 1: GCACAATACGACG DNA 2: CGTCGTATTGTGC | – | Kd (Arid5a ARID37-183 [2]): ~1.36 µM |
| FAM-13merGC (dsDNA) DNA 1: GCCCCGCCCGCCG DNA 2: CGGCGGGCGGGGC | – | binding result (Arid1a extended ARID [5]): binds |
| FAM-13merAT (dsDNA) DNA 1: GCACAATATAACG DNA 2: CGTTATATTGTGC | – | binding result (Arid1a extended ARID [6]): binds; Kd (Arid5a ARID37-183 [2]): ~1.36 µM |
